From PMC11118710, “GLP-1 and Its Derived Peptides Mediate Pain Relief Through Direct TRPV1 Inhibition Without Affecting Thermoregulation” (Research Square, 2024)

Biological target: human transient receptor potential vanilloid 1 (TRPV1) (human) (UniProt Q8NER1)
Sequence (Q8NER1 whole entry): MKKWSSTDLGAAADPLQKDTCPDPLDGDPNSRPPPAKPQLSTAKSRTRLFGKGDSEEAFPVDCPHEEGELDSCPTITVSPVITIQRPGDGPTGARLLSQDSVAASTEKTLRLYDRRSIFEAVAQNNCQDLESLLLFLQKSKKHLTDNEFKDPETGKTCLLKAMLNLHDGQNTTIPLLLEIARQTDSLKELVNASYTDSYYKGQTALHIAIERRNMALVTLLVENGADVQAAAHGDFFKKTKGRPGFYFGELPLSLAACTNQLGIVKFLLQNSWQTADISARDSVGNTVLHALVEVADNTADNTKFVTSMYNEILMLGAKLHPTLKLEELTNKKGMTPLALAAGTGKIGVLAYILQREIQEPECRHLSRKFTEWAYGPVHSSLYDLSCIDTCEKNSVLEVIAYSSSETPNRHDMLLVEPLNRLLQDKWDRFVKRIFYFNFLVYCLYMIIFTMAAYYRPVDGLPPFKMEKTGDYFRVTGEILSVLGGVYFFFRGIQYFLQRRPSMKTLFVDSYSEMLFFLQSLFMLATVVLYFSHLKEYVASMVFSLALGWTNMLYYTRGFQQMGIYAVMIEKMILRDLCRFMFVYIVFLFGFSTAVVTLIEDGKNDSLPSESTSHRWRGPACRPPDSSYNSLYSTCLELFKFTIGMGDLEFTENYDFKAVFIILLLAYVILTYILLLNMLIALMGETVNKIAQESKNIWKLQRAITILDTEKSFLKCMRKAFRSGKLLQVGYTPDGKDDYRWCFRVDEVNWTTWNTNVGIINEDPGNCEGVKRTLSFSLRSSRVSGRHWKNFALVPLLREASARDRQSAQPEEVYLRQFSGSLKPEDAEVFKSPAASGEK

Which IC50 of inhibition of the CAP (100 nM)-induced calcium response in CHO K1 cells expressing human TRPV1 does the source give for “exendin-4 (from UniProt P26349 48-87) (peptide)” here?
Its IC50 of inhibition of the CAP (100 nM)-induced calcium response in CHO K1 cells expressing human TRPV1 is 62.2 nM.
